Test results: the DeepSol protein solubility set

Assay: soluble on expression in E. coli; label from the status in PepcDB or PDB records

Sequence | soluble on expression in E. coli
SLIENSHVKKDDIWPSGGQMTVKDLTAKYTEGGNAILENISFSISPGQRVGLLGRTGSGKSTLLSAFLRLLNTEGEIQIDGVSWDSITLQQWRKAFGVIPQKVFIFSGTFRKNLDPYEQWSDQEIWKVADEVGLRSVIEQFPGKLDFVLVDGGCVLSHGHKQLMCLARSVLSKAKILLLDQPSAHLDPVTYQIIRRTLKQAFADCTVILCEHRIEAMLECQQFLVIEENKVRQYDSIQKLLNERSLFRQAISPSDRVKLFPHRNSSKCKSKPQIAALKEETEEEVQDTRLENLYFQGDKDCEMKRTTLDSPLGKLELSGCEQGLHEIKLLGKGTSAADAVEVPAPAAVLGGPEPLMQATAWLNAYFHQPEAIEEFPVPALHHPVFQQESFTRQVLWKLLKVVKFGEVISYQQLAALAGNPAATAAVKTALSGNPVPILIPCHRVVSSSGAVGGYEGGLAVKEWLLAHEGHRLGKPGLG | soluble
MVASSCLSMNDHHLLYQNISQDLDLGALLSSEVIQSLWGGYGELVRLIFAKRSVIVKHVKLPKPSEHPRGWNTDRSHQRKLHSYQVEVSWYAHFSGVMDSHCRVPQGLKTFQSENEWLIVMEDLAEAGFPKVITDAKLEHLRACLTWLANFHARYIGVCSDKLWHTGTYWHLATRPDELEALQDTELKKAAQLIDQTLSQAKFKTLVHGDAKLANFCFEQDELSVAAVDFQYVGHGCAMKDVALFMSSAVKPERCAEMEVWVLDTYFAKLQQALMVYQPNLDPDEVEREWRPLFAVAWADFQRFVKGWSPDHWKINPYTEALTRRALAYLRK | not soluble
MQTVNNIISSVSTVESKAYRDAMSHYAGAVQIVTTAGAAGRRGLTLTAACSVSDNPPTILICLQKIHEENRIFIENGVFAINTLAGPHQQLADAFSGRIGLTQDERFELAAWEILATGAPVLKGALAAFDCRVVSVQDHSTHHVLFGEVVGLSSHAEEEALIYLNRRYHKLEL | soluble
MTADWVVTFTFDADPSMETMDAWETQLEGFDALVSRVPGHGIDVTVYAPGDWSVFDALAKMAGEVMPVVQAKSPIAVQIISEPEHRLRAEAFTTPELMSAAEIADELGVSRQRVHQLRSTAGFPAPLADLRGGAVWDAAAVRRFAETWERKPGRPHTGTAKFAYSWAVGPAVGRSGKAPNVRWRVENPDKIRFVLRNIGDDIAEDVEIDLSRIDAITRNVPKKTVIRPGEGLNMVLIAAWGHPLPNQLYVRWAGQDEWAAVPLHPAH | soluble
MSVRATVVKRTISGGKGKISEYCDGTKAVFHYQALFPIEKHEKGQPLSLEKDAFKSIDDTRKPWPHGYGKPLEIVFGKKFQLPVFEQCLKTMLVDEISQFDVECIDLVQYPFVSKKLRDLVKPCDGKHSHAHTTHMCAASIAQGTGYEELDELMKNPRPLRFVFHLLQVFEPDQYVHDSWQLDEDDKLKSVEALRQKGNELFVQKDYKEAIDAYRDALTRLDTLILREKPGEPEWVELDRKNIPLYANMSQCYLNIGDLHEAEETSSEVLKREETNEKALFRRAKARIAAWKLDEAEEDLKLLLRNHPAAASVVAREMKIVTERRAEKKADSRVTYSKMFQP | not soluble
MHHHHHHSSGVDLGTENLYFQSMVDATRVPMDERFRTLKKKLEEGMVFTEYEQIPKKKANGIFSTAALPENAERSRIREVVPYEENRVELIPTKENNTGYINASHIKVVVGGAEWHYIATQGPLPHTCHDFWQMVWEQGVNVIAMVTAEEEGGRTKSHRYWPKLGSKHSSATYGKFKVTTKFRTDSVCYATTGLKVKHLLSGQERTVWHLQYTDWPDHGCPEDVQGFLSYLEEIQSVRRHTNSMLEGTKNRHPPIVVHCSAGVGRTGVLILSELMIYCLEHNEKVEVPMMLRLLREQRMFMIQTIAQYKFVYQVLIQFLQNSRLI | soluble
GSHMLITPRNIFRHELIGLSVRIARSVHRDIQGISGRVVDETRNTLRIEMDDGREITVPKGIAVFHFRTPQGELVEIDGRALVARPEERIKKKFRKP | soluble
PLEDWPDDVLASLPRGISRHTVRFVNVDGHVFAIKEIGQKAAYHEYKMLRDLNRLGAPSVQPLAVITGRVDATGQPLTPALVTEHLSFSLPYRAVFSQTSVSRSMRPETATR | not soluble
MIETAIYGKTVDDQSRCVHWHLPKDVIAIRFKCCDKYYACFECHQELSSHPLEKYDLLDDANKHLIICGVCRHEMTFAEYYDYNSNLICPNCRSPFNPGCKLHYHLYFQNPPPAMC | not soluble
MENFAYYTPTRLIFGKGLAIITPRWMRHILNDHTLERFVKFSVDIYGLLRLRKRTFMKYLKHHCRIYEEYNRGRIFGQGVCLFIIYYKLEHHHHHH | not soluble
MGSDKIHHHHHHMKLFTSCKESVKNSIDTKYFSIAHLHSEEETMSIHIHDCYEIYYSISGENQFLIDNKLYYINPGNLFAVNEFESHYVSQVNNSTHERIVISIHPDFLKSLCTSKTNLTYCFKHRGSNFCHKVSLNKEQQSRFMYFINKIIGSHGFGADMIEYASFIELMIFLTSLFINNGESLTPIYKYSNQIEEIIRYINDNVTNDITVKHLAEHFFLSESYICRIFKLSTGTTINKYITARRISMAKALLSNGSSINDVYVKCGFNDYSNFLKSFKKAVGISPKKYSTFSTS | not soluble
RSGVLITDKPKKKDKKEEPAALQTTVQSMLISRPRELEAEVVRFQNNREKWIAFVGLKDGRPYEIFTGIADDDEGIMVPKSVTHGKIIKNRDENGERHYDFQFCNKKGFKVTIEGLDSKFNPEYWNYAKLISGVLRYGMPIEQVVHLVQGMSLNDESINTWKNGVERALKRYLPNGTTLSGQVCPSCGQETLVYQEGCLLCTSCGASKCG | not soluble
MSLSWYEEWFWSDAYTRVYDHRDDAEAEQLVDLIEHEIAPASGAHILDIGCGRGRHARALVRRGWQVTGLDLSEDAVAAARSRVADDDLDVRASFRVGDMRTPVCDGCADGVVNLFTSFGYFDADAENERALAAMATALRPGGWFLQDFLNAPQVAESLGASVYETEDGRTIHQDRWIEDGRVNKKITVRQNGHTETFQESVRLYTRSDLTAMYERVGLEVVALFGDYDGGNYVPDESPRLLLHAVRPTEGHHHHHH | soluble
MTIDTELTNGSSESVPFVFIGGGNMAAAIIKGCQNKGFTPKSNIVIGVQTEKSAEKWRQLGYKNVFTNTLEMLERYSTAIYVICVKPQVFEEVVSSWPVNSRPEFIISVMAGVPLKVLNAKLPFVSGNTTIVRLMPNVASSIGAGASTMCYEKNEKIMNQDSHIELAREFAECVGTVELIPERCFNPAMAIGGSSPAWTFMYIESLADGAVAQGLGRAEAKRLAAQAVLGAAQMVLNSNSGFDIETQHFGSLKDMVCSPGGTTIEGVRALEKNGFRYAVMEAVVAASTKADEMAKSLAK | soluble
SSSSQHFNLNFTITNLPYSQDIAQPSTTKYQQTKRSIENALNQLFRNSSIKSYFSDCQVLAFRSVSNNNNHTGVDSLCNFSPLARRVDRVAIYEEFLRMTHNGTQLLNFTLDRKSVFVD | soluble
MGSDKIHHHHHHMYKVIIIDDEKAAIETLRRDLEVQTDLEIKGTAGNGAKGKKLIMDIHPDLLFLDIELPDIQGIRLLSEIREQVLWDMKVVFYTAYDKYLLQALRESAFDYLLKPYDIEELNLIIERYRKTMASARPLPSFASAVGTLMPGRDLFMISTVTGFRFLRLEEIGYFEYLKDKRLWQVELFNQTKLCLKKNTTAGDIIGYSDAFVQISQSAIININYLAMIKSKQCLLYPPFSDKEDLIISRGFLKELQERFCII | not soluble
